Tests used:
[1] = target: TdT (murine terminal deoxynucleotidyl transferase, single cysteine at position 182, conjugated to dNTP via amino acid ester linker) (Mus musculus) (UniProt P09838); settings: hydroxymethyl scar on 3'-terminal T base; dTTP ester-linker conjugate; same yield as natural unscarred primer
[2] = target: TdT (murine terminal deoxynucleotidyl transferase, single cysteine at position 182, conjugated to dNTP via amino acid ester linker) (Mus musculus) (UniProt P09838); test: EMSA; settings: Linker 1 or 2 dTTP conjugate, 60 s; covalent primer-extension complex on SDS-PAGE gel shift

Sequence of TdT (murine terminal deoxynucleotidyl transferase, single cysteine at position 182, conjugated to dNTP via amino acid ester linker) (Mus musculus) (P09838 other isoform, or with tags, fused parts or gaps): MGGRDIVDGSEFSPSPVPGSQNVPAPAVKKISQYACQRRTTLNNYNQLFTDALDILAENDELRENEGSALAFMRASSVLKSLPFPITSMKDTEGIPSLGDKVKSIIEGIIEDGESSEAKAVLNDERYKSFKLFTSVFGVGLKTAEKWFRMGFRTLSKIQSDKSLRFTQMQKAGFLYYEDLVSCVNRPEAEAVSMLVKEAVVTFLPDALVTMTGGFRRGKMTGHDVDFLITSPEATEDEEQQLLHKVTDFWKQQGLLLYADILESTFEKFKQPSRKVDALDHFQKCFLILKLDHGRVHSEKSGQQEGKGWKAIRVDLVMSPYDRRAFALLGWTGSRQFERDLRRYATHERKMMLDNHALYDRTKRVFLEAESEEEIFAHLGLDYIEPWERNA

Row | Substance | activity (% extension in 1 s) [1] | activity [2] [% extension]
1 | primer with 3'-terminal hydroxymethyl-scarred dT | 35 | 
2 | ssDNA primer |  | > 95
